The values that follow come from patent US20250296994A1 (SYSMEX, published 2025).

The target in the assay is T1, recombinant Crtac1B fragment #5 (human, UniProt Q9NQ79 28-606).
T1 construct: also called fCrtac1B (1-608)
T1 sequence: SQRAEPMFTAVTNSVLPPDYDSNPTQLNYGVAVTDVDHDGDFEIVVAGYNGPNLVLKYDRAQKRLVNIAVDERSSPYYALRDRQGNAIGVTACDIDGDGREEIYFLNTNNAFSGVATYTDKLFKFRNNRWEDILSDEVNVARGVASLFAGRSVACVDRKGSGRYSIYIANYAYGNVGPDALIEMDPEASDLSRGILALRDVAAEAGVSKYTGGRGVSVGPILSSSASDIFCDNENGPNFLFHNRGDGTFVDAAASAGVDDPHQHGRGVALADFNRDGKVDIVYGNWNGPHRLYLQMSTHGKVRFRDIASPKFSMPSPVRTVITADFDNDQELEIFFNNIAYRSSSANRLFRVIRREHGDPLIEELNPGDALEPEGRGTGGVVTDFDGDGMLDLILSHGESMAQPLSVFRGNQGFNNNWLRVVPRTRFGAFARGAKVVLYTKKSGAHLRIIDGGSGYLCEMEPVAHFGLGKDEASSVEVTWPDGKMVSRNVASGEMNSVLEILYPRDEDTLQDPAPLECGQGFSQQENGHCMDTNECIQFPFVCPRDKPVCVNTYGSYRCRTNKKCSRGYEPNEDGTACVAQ
Put plainly: antigen immobilized ELISA; reference fCrtac1B (1-609). Here is the method: The positive antigen and the negative control were diluted to a concentration of 20 μg/mL with dilution buffer I (20 mM potassium phosphate buffer (pH 7.4), 150 mM NaCl). A positive antigen (50 μL) and a negative control (50 μL) were added to each well of a 96 well plate, respectively. Then, the plate was incubated at 4° C. overnight, and the positive antigen and the negative control were immobilized in the well to obtain an antigen immobilized plate. Each well was washed twice with a washing solution (250 μL, 0.05% Tween (registered trademark) 20/20 mM potassium phosphate buffer (pH 7.4), 150 mM NaCl). To each well was added a blocking buffer (250 μL, 5% skim milk/20 mM potassium phosphate buffer (pH 7.4), 150 mM NaCl), and blocked at room temperature for 90 minutes. Culture supernatant (50 μL) of each hybridoma selected by primary screening was added to each well, and the cells were incubated at 37° C. for 1 hour. Each well was washed three times with a washing solution (250 μL). The HRP-labeled anti-mouse IgG antibody (MBL, product number 330) was diluted 1:1,000 with dilution buffer II (1% skim milk/20 mM potassium phosphate buffer (pH 7.4), 150 mM NaCl). […] The plate was set in a microplate reader (Thermo Fisher Scientific, Varioskan (registered trademark) Flash), and the color development intensity at 655 nm was measured for each well. […]
In general terms: An ELISA detects its analyte on a solid surface through an enzyme-linked reagent.

B1: 15C2 antibody (monoclonal antibody derived from the hybridoma of clone 15C2) (antibody, mouse IgG1, kappa, V domains shown)
VH: EVQLQQFGAELVKPGASVKISCKASGYTFTDYNMDWVKQSHGKSLEWIGDINPNYDSSSYNQKFKGKATLTVDKSSSTAYMELRSLTSEDTAVYYCTRSGGTYWGQGTLVTVSA
VL: DIQMNQSPSSLSASLGDTITITCHASQNINVWLSWYQQKPGNIPKLLIYKASNLHTGVPSRFSGSGSGTGFSLTISSLQPEDIATYYCQQAQSYPRTFGGGTKLEIKR
notes: Mouse IgG1; Used as hybridoma culture supernatant (ELISA) or purified from supernatant (IB, IP); also called anti-Crtac1B antibody; antibody of the present embodiment
On to B1, for which the “binding relative to the binding to fCrtac1B (1-609)” value is ~0.1 fold.
